In experiment [1] the target is T1, mutated murine c-MET antigen with human membrane-distal epitopes (extracellular domains fused to a truncated … (murine/human chimera)).
T1 construct: also called cMET-8
T1 chain: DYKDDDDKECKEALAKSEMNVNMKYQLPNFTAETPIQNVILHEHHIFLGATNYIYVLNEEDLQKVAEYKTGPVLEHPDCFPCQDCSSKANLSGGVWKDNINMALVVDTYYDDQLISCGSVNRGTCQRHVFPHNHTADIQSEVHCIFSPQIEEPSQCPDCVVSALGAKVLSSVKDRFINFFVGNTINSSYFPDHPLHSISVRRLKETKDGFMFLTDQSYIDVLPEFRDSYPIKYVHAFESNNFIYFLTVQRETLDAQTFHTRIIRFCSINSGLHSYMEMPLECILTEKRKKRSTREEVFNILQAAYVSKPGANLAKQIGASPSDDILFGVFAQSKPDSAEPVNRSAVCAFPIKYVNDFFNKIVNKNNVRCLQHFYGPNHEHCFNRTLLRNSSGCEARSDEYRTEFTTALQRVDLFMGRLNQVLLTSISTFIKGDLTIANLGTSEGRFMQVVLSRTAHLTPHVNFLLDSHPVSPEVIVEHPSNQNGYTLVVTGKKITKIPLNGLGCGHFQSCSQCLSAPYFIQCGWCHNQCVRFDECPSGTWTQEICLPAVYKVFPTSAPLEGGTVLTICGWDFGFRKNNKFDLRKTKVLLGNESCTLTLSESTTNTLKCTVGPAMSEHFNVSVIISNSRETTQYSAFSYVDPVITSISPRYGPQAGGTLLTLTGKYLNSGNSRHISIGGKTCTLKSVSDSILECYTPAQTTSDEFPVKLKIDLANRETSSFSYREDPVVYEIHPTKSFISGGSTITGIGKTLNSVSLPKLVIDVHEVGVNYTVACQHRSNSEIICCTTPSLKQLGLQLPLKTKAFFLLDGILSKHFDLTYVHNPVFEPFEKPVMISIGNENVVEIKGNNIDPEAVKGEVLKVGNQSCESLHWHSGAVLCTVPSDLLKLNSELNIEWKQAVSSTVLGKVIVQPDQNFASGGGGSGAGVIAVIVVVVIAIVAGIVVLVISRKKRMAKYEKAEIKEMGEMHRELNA
Put plainly: FACS, CHO transfectants, periplasmic preparation.

Experiment [2] concerns the target T2, mutated human c-MET antigen with murine membrane-distal epitopes (extracellular domains fused to a truncated … (human/murine chimera)).
T2 construct: also called cMET-10
T2 chain: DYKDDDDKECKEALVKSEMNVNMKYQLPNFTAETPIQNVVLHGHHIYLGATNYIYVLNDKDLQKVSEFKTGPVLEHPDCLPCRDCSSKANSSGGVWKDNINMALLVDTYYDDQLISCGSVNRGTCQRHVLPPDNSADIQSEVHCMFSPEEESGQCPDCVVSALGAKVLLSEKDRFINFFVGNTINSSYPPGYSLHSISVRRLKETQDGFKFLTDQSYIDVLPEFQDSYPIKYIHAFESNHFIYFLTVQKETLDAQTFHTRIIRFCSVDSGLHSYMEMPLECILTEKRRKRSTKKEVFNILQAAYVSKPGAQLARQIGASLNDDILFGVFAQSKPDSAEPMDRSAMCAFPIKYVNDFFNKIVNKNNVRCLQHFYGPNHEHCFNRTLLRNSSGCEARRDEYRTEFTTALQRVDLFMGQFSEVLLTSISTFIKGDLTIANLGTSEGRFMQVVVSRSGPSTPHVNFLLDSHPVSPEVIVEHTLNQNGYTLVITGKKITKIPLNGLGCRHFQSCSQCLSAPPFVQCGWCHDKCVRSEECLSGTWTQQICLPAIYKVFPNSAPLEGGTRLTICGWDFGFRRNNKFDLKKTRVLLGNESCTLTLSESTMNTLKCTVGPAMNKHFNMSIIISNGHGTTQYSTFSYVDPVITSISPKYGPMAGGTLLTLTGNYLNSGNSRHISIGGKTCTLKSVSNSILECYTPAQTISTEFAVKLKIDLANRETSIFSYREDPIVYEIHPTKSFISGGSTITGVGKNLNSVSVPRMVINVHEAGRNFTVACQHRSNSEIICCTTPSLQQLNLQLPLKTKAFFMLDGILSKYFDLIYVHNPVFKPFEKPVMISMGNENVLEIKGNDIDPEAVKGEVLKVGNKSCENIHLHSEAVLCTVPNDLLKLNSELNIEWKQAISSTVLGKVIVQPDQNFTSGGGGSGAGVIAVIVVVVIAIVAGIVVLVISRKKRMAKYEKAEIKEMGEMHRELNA
Put plainly: FACS, CHO transfectants, periplasmic preparation. (In general: Flow cytometry measures light scatter and fluorescence of single cells or particles in a stream.)

B1: ME06D1HL (scFv)
scFv: EVQLLEQSGAEVVRPGTSVKMSCKAAGYTFTKYWIGWVKQRPGHGLEWIGDIHPGGGFANYNEKFKGKATLTADTSSSTAYMQLSRLTSDDSAIYYCARSGYDYGSSYDYHGMDYWGQGTTVTVSSGGGGSGGGGSGGGGSELVMTQSPSSLTVTAGEKVTMSCKSSQSLLNSGNQKNYLAWYQQKPGQPPKLLIYGASTRESGVPDRFTGSGSGTDFTLTISSVQAEDLADYFCQQHYSTPYTFGGGTKLEIKTGDYKDDDDKHHHHHH
notes: murine anti-c-MET scFv; E. coli periplasmic preparation
For B1, the binding result in experiment [1] is given as “no binding”; in experiment [2], “binds”.

B2: ME05B7HL (scFv)
scFv: EVQLLEQSGAELVRPGTSVKISCKTTGYTFGYYWISWLKQRPGHGLEWIGDIYPGGGYTNYHEKFKGKVTLTADTSSRTAYMQLSSLTFEDSAIYYCARSGYDYGSDYDYHGMDYWGQGTTVTVSSGGGGSGGGGSGGGGSELVMTQTPSSLSASLGDRVTISCRASQGISNYLNWYQQKPDGSVKLLIYYTSRLHSGVPSRFSGSGSGTDYSLTISNLDQEDIATYFCQQGNTLPWTFGGGTKLEIKTGDYKDDDDKHHHHHH
notes: as for B1
Regarding B2, the binding result in experiment [1] is reported as “no binding”; in experiment [2], “binds”.

B3: ME06D2HL (scFv)
scFv: EVQLLEQSGADLVRPGTSVKLSCKAAGYTFSRYWISWIRQRPGHGLEWIGEIYPGGGYGNYNENFKDKVTLTADTSSSTAYMQLSSLTSEDSAIYYCARSGYDYGSKYDYYGLDYWGQGTTVTVSSGGGGSGGGGSGGGGSELVMTQSPSSMYASLGERVTITCKASQDINSYLSWFQQKPGKSPKTLIYRANRLVDGVPSRFSGSGSGQDYSLTISSLEYEDMGIYYCLQYDAFPPTFGAGTKLEIKTGDYKDDDDKHHHHHH
notes: as for B1
Take B3: the values for the binding result in experiment [1] and in experiment [2] were “no binding” and “binds”, respectively.

B4: ME75H6HL (scFv)
scFv: EVQLLEQSGAELVRPGTSVKMSCKAAGYTFTKYWIGWVKQRPGHGLEWIGDIHPGGGYANYNEKFKGKATLTADTSSSTAYMQLSRLTSDDSAIYYCARSGYDYGSSYDYHGMDFWGQGTTVTVSSGGGGSGGGGSGGGGSELQMTQSPASLSASVGEPVTFTCRASENIYSYLAWYQQKQGKSPQLLIYGATNLADGMSSRFSGSGSGRQYSLKISSLHPDDVATYYCQNVLSTPYTFGGGTKLEIKTGDYKDDDDKHHHHHH
notes: as for B1
Regarding B4, the figures for the binding result in experiment [1] and in experiment [2] were “no binding” and “binds”, respectively.

B5: ME06C6HL (scFv)
scFv: EVQLLEQSGAELVRPGTSVKIPCKATGYTFSYYWIGWVKQRPGHGLEWIGDIYPGGGYSNYNEKFKGKATLTADTSSSTAYMQLSGLTSEDSAIYYCARSGYDYGSDYDYHGLDYWGQGTTVTVSSGGGGSGGGGSGGGGSELVLTQSPASLAVSLGQRATISCRASESVEYYGTSLMQWYQQKPGQPPKLLIYAASNVESGVPARFSGSGSGTDFSLNIHPVEEDDIAMYFCQQSRKVPYTFGGGTKLEIKTGDYKDDDDKHHHHHH
notes: as for B1
As to B5, the binding result in experiment [1] is “no binding”; in experiment [2] it was “binds”.

B6: ME06F2HL (scFv)
scFv: EVQLLEQSGAELMKPGASVKISCKATGYTFSNYWIGWVKQRPGHGLEWIGDIYPGGSYTNYNEKFKGKVTLTADTSSRTAYMQLSSLTFEDSAIYYCARSGYDYASDYDYHGMDYWGQGTTVTVSSGGGGSGGGGSGGGGSELVLTQSPSSMSASLGDRITITCQATQDIVKNLNWYQQKPGKPPSFLIYYATELAEGVPSRFSGSGSGSDYSLTISNLESEDFADYYCLQFYEFPYTFGGGTKLEIKTGDYKDDDDKHHHHHH
notes: as for B1
As to B6, the binding result is “no binding” in experiment [1] and “binds” in experiment [2].

B7: ME99B1HL (scFv)
scFv: EVQLLEQSGAELVRPGTSVKISCKATGYTFSNYWISWVKYRPGHGLEWIGDIYPGGSYTNYNEKFKGKVTLTADTSSRTAYMQLSGLTFEDSAIYYCARSGYDYGSDYDYHGMDYWGQGTTVTVSSGGGGSGGGGSGGGGSELQMTQSPASLSASVGETVTITCRASENIYSNLAWYQQKQGKSPQLLVYAATNLADGVPSRFSGSRSGSDYSLTISSLESEDFVDYYCLQYASYPYTFGGGTKLEIKTGDYKDDDDKHHHHHH
notes: as for B1
For B7, in experiment [1], the binding result is “no binding”.

B8: ME06C7HL (scFv)
scFv: EVQLLEQSGAEVVRPGTSVKMSCKAAGYTFTKYWIGWVKQRPGHGLEWIGDIHPGGGFANYNEKFKGKATLTADTSSSTAYMQLSRLTSDDSAIYYCARSGYDYGSSYDYHGMDYWGQGTTVTVSSGGGGSGGGGSGGGGSELQMTQSPTSLAVSLGQRATISCRASQTVYYDGNNYMNWYQHKPGQPPKLLIYATSNLESGIPARFSGSGSGTDFTLNIHPVEAEDAATYYCQQSYEDPYTFGGGTKLEIKTGDYKDDDDKHHHHHH
notes: as for B1
In the case of B8, the binding result is recorded as “no binding” in experiment [1] and “binds” in experiment [2].

B9: ME06E10HL (scFv)
scFv: EVQLLEQSGADLVRPGTSVKLSCKAAGYTFSRYWISWIRQRPGHGLEWIGEIYPGGGYGNYNENFKDKVTLTADTSSSTAYMQLSSLTSEDSAIYYCARSGYDYGSKYDYYGLDYWGQGTTVTVSSGGGGSGGGGSGGGGSELVMTQSPSSLSASLGERVSLTCRASQEISGYLSWLQQKPDGTIKRLIYAASTLDSGVPKRFSGSRSGSDYSLTISSLESEDFADYYCLQYASSPYTFGGGTKLEIKTGDYKDDDDKHHHHHH
notes: as for B1
Regarding B9, the binding result in experiment [1] is on record as “no binding”; in experiment [2], “binds”.

B10: ME05F6HL (scFv)
scFv: EVQLLEQSGAEVVRPGTSVKMSCKAAGYTFTKYWIGWVKQRPGHGLEWIGDIHPGGGFANYNEKFKGKATLTADTSSSTAYMQLSRLTSDDSAIYYCARSGYDYGSSYDYHGMDYWGQGTTVTVSSGGGGSGGGGSGGGGSELVMTQSPSSLSASLGERVSLTCRASQEISGYLSWLQQKPDGTIKRLIYAASTLDSGVPKRFSGSRSGSDYSLTISSLESEDFADYYCLQYASYPPTFGGGTKLEIKTGDYKDDDDKHHHHHH
notes: as for B1
Turning to B10, the binding result was “no binding” in experiment [1] and “binds” in experiment [2].

B11: ME06B7HL (scFv)
scFv: EVQLLEQSGAELVRPGTSVKISCKATGYTFTTYWLGWVKQRPGHGLEWIGEIHPGGGYTNYNEKFKGKATLTADTSSSTAYMQLSRLTSDDSAIYYCARSGYDYGSSYDYYGMDYWGQGTTVTVSSGGGGSGGGGSGGGGSELVMTQSPSSLSASLGERVSLTCRASQDIGSSLNWLQQEPDGTIKRLIYATSSLDSGVPKRFSGSRSGSDYSLTISSLESEDFVDYYCLQYASSPYTFGGGTKLEIKTGDYKDDDDKHHHHHH
notes: as for B1
Regarding B11, the results for the binding result in experiment [1] and in experiment [2] were “no binding” and “binds”, respectively.

(Values after patent US20110262439A1 (Amgen, published 2011).)
